Measurements taken from patent US20020065218A1.

Key:
[1] = target: chimeric receptor consisting of the extracellular domain of mouse VEGFR-2 and the cytoplasmic domain of erythropoietin receptor, on Ba/F3 cells (mouse) (UniProt P35918); test: cell-based or functional assay
[2] = target: chimeric receptor consisting of the extracellular domain of mouse VEGFR-3 and the cytoplasmic domain of erythropoietin receptor, on Ba/F3 cells (mouse) (UniProt P35917); test: cell-based or functional assay
UniProt P35917, sequence (P35917 25-775, change not shown): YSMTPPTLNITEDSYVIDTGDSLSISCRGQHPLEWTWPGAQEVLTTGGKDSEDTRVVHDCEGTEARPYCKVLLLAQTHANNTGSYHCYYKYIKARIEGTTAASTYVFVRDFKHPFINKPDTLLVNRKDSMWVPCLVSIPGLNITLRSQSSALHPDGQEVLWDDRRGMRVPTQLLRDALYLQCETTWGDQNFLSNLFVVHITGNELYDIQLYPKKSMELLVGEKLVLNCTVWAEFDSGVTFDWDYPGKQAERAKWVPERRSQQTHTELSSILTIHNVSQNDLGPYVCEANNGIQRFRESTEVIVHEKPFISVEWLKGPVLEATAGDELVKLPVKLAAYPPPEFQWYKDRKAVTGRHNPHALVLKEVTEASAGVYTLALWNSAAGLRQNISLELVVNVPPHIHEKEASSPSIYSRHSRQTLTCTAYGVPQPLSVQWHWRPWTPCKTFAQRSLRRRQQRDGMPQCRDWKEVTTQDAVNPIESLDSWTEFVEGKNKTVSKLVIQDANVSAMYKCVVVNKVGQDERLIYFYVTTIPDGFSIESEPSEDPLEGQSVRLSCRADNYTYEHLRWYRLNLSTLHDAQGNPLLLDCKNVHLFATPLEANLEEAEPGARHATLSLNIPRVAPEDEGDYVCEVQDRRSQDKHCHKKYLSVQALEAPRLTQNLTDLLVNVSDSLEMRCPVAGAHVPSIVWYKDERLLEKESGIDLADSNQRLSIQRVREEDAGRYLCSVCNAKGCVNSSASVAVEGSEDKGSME

UniProt P35918, sequence (P35918 20-762, change not shown): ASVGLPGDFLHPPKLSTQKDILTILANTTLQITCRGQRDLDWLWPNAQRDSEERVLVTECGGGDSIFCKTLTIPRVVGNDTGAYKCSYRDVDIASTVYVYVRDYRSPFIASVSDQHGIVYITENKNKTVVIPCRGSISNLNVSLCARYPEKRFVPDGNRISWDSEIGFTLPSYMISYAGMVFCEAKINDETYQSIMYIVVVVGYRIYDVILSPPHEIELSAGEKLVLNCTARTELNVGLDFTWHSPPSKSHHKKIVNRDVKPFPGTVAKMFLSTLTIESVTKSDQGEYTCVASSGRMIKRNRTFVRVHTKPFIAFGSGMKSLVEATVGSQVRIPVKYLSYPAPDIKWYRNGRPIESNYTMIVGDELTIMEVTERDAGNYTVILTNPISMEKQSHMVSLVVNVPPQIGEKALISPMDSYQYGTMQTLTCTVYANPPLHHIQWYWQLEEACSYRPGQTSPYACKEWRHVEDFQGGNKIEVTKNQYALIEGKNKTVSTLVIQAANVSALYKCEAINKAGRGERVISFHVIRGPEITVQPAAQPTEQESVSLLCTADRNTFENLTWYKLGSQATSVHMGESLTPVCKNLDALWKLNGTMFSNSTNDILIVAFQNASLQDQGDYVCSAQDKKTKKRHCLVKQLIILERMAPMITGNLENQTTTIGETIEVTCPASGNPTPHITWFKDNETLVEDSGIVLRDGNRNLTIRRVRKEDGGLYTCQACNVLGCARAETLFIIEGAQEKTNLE

In the case of “recombinant VEGF-CΔNΔC (from UniProt P49767 103-215) (ligand)”, the concentration producing near-maximal survival of Ba/F3-NYK-EpoR cells without IL-3 [1] was 50 ng/mL and the concentration producing near-maximal survival of Ba/F3 VEGFR-3-EpoR cells without IL-3 [2] was 3 ng/mL.

With “recombinant VEGF-DΔNΔC (from UniProt O43915 93-201) (ligand)” the concentration producing near-maximal survival of Ba/F3-NYK-EpoR cells without IL-3 [1] was 500 ng/mL and the concentration producing near-maximal survival of Ba/F3 VEGFR-3-EpoR cells without IL-3 [2] was 500 ng/mL.
